Earlier results on one substance are cited in paper PMC3447994.

pKd: −log10 of the molar value.

By pKd is commonly meant the Kd on a negative log10 scale, so that one unit is a factor of ten.

The target in the series is IgG Fc Fc (Homo sapiens) [IgG part: P01857].

Sequence of FcγRIIIa (P08637 17-254): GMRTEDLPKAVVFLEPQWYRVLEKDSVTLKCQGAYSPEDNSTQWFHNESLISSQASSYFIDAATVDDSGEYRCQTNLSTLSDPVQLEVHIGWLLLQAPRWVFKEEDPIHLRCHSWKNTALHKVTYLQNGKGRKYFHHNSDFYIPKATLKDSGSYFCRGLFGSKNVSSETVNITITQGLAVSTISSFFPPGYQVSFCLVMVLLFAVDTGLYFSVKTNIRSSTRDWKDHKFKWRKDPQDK

FcγRIIIa (from UniProt P08637): the pKd was 5.70.
